According to paper PMC4974627 (Biochemistry, 2016):

Biological target: the molecule itself
Experiment: native MS

B1: Arabidopsis thaliana S-nitrosoglutathione reductase (AtGSNOR), CysSH-treated control (unmodified) (enzyme)
chain: ATQGQVITCKAAVAYEPNKPLVIEDVQVAPPQAGEVRIKILYTALCHTDAYTWSGKDPEGLFPCILGHEAAGIVESVGEGVTEVQAGDHVIPCYQAECRECKFCKSGKTNLCGKVRSATGVGIMMNDRKSRFSVNGKPIYHFMGTSTFSQYTVVHDVSVAKIDPTAPLDKVCLLGCGVPTGLGAVWNTAKVEPGSNVAIFGLGTVGLAVAEGAKTAGASRIIGIDIDSKKYETAKKFGVNEFVNPKDHDKPIQEVIVDLTDGGVDYSFECIGNVSVMRAALECCHKGWGTSVIVGVAASGQEISTRPFQLVTGRVWKGTAFGGFKSRTQVPWLVEKYMNKEIKVDEYITHNLTLGEINKAFDLLHEGTCLRCVLDTSK
- stoichiometry N: 2
